# Measurements: patent US20230137562A1, “TAU AGGREGATION INHIBITORS” (priority 2017, published 2023)
# Several values for one entry are separate records, joined by “and”; a condition that tells them apart may be missing. Identical values can stand only once.
# T1: Ac-VQIINK-NH2
# T1 peptide: Ac-VQIINK-NH2
# Legend:
# [1] = biological target: His-Tau40P301L Tau (UniProt P10636-8 1-441); assay: cell-based or functional assay
# [2] = biological target: T1, Ac-VQIINK-NH2; assay: cell-based or functional assay
# Sequence of His-Tau40P301L Tau (P10636 other isoform, or with tags, fused parts or gaps limits assumed): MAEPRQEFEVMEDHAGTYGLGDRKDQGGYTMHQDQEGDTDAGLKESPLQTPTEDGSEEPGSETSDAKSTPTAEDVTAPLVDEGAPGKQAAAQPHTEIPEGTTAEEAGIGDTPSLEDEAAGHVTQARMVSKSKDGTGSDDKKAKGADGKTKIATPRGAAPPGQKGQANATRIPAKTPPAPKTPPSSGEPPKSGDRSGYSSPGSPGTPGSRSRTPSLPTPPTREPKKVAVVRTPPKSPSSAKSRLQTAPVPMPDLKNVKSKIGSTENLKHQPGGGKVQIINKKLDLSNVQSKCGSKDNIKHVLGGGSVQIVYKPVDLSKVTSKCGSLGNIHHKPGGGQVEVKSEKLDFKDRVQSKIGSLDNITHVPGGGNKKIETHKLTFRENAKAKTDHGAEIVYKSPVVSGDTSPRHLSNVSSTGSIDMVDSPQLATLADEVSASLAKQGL
Binder,"IC50 (µM), Tau40 assay (ThT) [1]","IC50 (µM), VQIINK Inhibition (ThT) [2] [µM]"
WKLKLRWW,2.06 µM,0.82
WWIRIRYWK,1.02 µM and 1.12 µM,1.89
WRARARW,12 µM,29.1
KIRLYWW,5.73 µM,2.86
ARIRIRW,4.19 µM,2.72
WIRYWWRI,3.69 µM,2.8
IWIRLW,11.4 µM,2.12
ERIWIRYW,5.33 µM,6.19
WRIHIRW,3.09 µM,1.47
WRIRLRYW,1.02 µM and 1.32 µM,4.13
WRIRLRW,0.9 µM and 0.97 µM,4.04
RIRIAIW,4.14 µM,1.8
WRIWIRLW,7.32 µM,3.97
RIRLWIW,7.07 µM,4.63
IWIRYW,4.05 µM,5.43
RIRLEWW,9.8 µM,3.89
WRARIRW,3.7 µM,5.77
WRFRLYLR,47 µM,2.81
RIHIFFW,4.4 µM,1.95
WRIRIRR,3.15 µM,34.1
WRLWFWWR,1.82 µM,1.19
WRIWIRW,2.98 µM and 2.1 µM and 2.11 µM,2.73
IRLWIW,9.6 µM,1.83
IWLRLW,9.93 µM,2.29
FRIWIRYF,4 µM,4.64
WRIRIRH,4.44 µM,11.6
WRIRLYWR,3.1 µM,2.12
WKIHIWWR,5.75 µM,2.01
WRIRIAW,4.72 µM,6
